{"source": "patent US20180244725", "molecular_target": "T1, R5 peptide", "T1 chain": "SSKKSGSYSGSKGSKRRIL"}
{"protein": "N-myrisotyltransferase 1 (NMT1) (protein) MADESETAVKPPAPPLPQMMEGNGNGHEHCSDCENEEDNSYNRGGLSPANDTGAKKKKKKQKKKKEKGSETDSAQDQPVKMNSLPAERIQEIQKAIELFSVGQGPAKTMEEASKRSYQFWDTQPVPKLGEVVNTHGPVEPDKDNIRQEPYTLPQGFTWDALDLGDRGVLKELYTLLNENYVEDDDNMFRFDYSPEFLLWALRPPGWLPQWHCGVRVVSSRKLVGFISAIPANIHIYDTEKKMVEINFLCVHKKLRSKRVAPVLIREITRRVHLEGIFQAVYTAGVVLPKPVGTCRYWHRSLNPRKLIEVKFSHLSRNMTMQRTMKLYRLPETPKTAGLRPMETKDIPVVHQLLTRYLKQFHLTPVMSQEEVEHWFYPQENIIDTFVVENANGEVTDFLSFYTLPSTIMNHPTHKSLKAAYSFYNVHTQTPLLDLMSDALVLAKMKGFDVFNALDLMENKTFLEKLKFGIGDGNLQYYLYNWKCPSMGAEKVGLVLQ", "values": [{"measurement": "myristoylation of R5 (LC-MS time course)", "result": "A time course showing the incorporation of one myristoyl group was determined by LC-MS"}]}
